Measurements published in patent publication US20150218261A1.

Key:
Aβ(1-42) fibril (human) = assay: dot blot, antigen dilution series on nitrocellulose, antibody 0.2 µg/ml, densitometry
[1] = target: Aβ(1-42) globulomer (human); assay: as above
sAPPα = sAPPα (UniProt P05067); assay: dot blot, antigen dilution series on nitrocellulose (first dot 1 pmol), antibody 0.2 µg/ml, densitometry

Sequence of Aβ(1-42) fibril (human) (peptide, as listed by the source): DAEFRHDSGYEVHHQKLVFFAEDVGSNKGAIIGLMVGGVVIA
Sequence of Aβ(1-42) globulomer (human) (peptide, as listed by the source): as above

B1: humanized monoclonal anti-Aβ antibody 4D10hum#1 (antibody, human IgG1, kappa, V domains shown)
VH: EVQLVESGGGLVQPGGSLRLSCAVSGFTLSSYGVHWVRQAPGKGLEWLGVIWRGGRIDYNAAFMSRLTISKDNSKSTVYLQMNSLRAEDTAVYYCARNSDVWGQGTTVTVSS
VL: DVVMTQTPLSLPVTPGQPASISCKSSQSLLDIDGKTYLNWLLQKPGQSPQRLIYLVSKLDSGVPDRFSGSGSGTDFTLKISRVEAEDVGVYYCWQGTHFPYTFGQGTKLEIKR
Aβ(1-42) fibril (human)
  dot blot quantification (relation between recognition of Aβ(20-42) globulomer and the respective Aβ form): > 10000
[1]
  dot blot quantification (relation between recognition of Aβ(20-42) globulomer and the respective Aβ form): > 10000
sAPPα
  dot blot quantification (relation between recognition of Aβ(20-42) globulomer and the respective Aβ form): > 100
